Test results as given in patent US20130136748A1 (Ablynx, published 2013).
Read-outs that look alike come from different tables or passages of the source.

How the values were obtained:
[1] = target: T1, hHER3 full length (human, UniProt P21860 20-1342); test: FACS competition with HRG1-β1-EGF, CHO-HER3
[2] = target: T2, human HER3-Fc (R&D Systems, 348-RB) (human, UniProt P21860 20-643); test: SPR, HER3-Fc captured by anti-Fc
T2 construct: Bought; also called hHER3-Fc; Fc-HER3; Fc part of the bought chimera not given, not described

[3] = target: T1, hHER3 full length; test: cell-based or functional assay
[4] = target: T1, hHER3 full length; test: cell-based or functional assay; remark: listed apart in the source
[5] = target: T3, hHER3 ECD (human HER3 extracellular domain) (human, UniProt P21860 20-643); test: ELISA, coated hHER3-ECD
T3 construct: also called recombinant HER3-ECD

[6] = target: T4, cHER3ECD (Maccaca fascicularis HER3 extracellular domain) (Macaca fascicularis, UniProt P21860 20-643 (human entry)); test: ELISA, coated cHER3-ECD
T4 construct: also called cyno HER3ECD; cyno HER3-ECD
T4 chain: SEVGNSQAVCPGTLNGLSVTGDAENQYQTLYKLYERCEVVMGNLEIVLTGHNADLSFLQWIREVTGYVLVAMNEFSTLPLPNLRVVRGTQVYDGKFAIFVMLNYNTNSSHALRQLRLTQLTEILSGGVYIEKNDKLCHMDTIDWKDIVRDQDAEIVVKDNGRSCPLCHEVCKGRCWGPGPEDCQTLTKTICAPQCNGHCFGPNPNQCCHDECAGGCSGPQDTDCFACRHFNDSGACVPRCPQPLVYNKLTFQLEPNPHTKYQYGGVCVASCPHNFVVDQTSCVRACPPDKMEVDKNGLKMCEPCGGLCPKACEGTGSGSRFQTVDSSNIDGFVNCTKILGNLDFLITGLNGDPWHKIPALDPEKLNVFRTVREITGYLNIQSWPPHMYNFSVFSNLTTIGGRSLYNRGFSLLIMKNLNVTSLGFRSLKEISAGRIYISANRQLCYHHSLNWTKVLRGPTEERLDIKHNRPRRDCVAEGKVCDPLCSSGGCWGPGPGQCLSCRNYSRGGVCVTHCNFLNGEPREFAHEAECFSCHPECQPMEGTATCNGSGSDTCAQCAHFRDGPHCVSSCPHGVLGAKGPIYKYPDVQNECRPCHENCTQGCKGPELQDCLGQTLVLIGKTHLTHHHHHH

[7] = target: T1, hHER3 full length; test: FACS, 400 nM, competitor 04C07-biotin
[8] = target: T1, hHER3 full length; test: FACS, 400 nM, competitor 04F10-biotin
[9] = target: T1, hHER3 full length; test: FACS, 400 nM, competitor 17C08-biotin
[10] = target: T1, hHER3 full length; test: FACS, 400 nM, competitor 18E08-biotin
[11] = target: T1, hHER3 full length; test: FACS, 400 nM, competitor 21B02-biotin
[12] = target: T1, hHER3 full length; test: FACS, 400 nM, competitor 23F05-biotin
[13] = target: T2, human HER3-Fc (R&D Systems, 348-RB); test: HRG competition alphascreen
[14] = target: T1, hHER3 full length; test: cell-based or functional assay; remark: listed apart in the source
[15] = target: T3, hHER3 ECD (human HER3 extracellular …); test: SPR off rate on HER3-ECD, periplasmic extract
[16] = target: T2, human HER3-Fc (R&D Systems, 348-RB); test: 18G11 competition alphascreen, periplasmic extract
[17] = target: T1, hHER3 full length; test: cell-based or functional assay; remark: listed apart in the source
[18] = target: T2, human HER3-Fc (R&D Systems, 348-RB); test: HRG competition alphascreen; remark: listed apart in the source

Molecule: Control MAb2 (antibody)
- IC50 [1]: 67.2 nM

Molecule: Control Fab1
- Kd [2]: 0.57 nM
- kon [2]: 703000 M⁻¹ s⁻¹

Molecule: Control MAb1 (antibody)
- IC50 [1]: 9.4 nM

Molecule: Control Fab2
- Kd [2]: 2.77 nM
- kon [2]: 93400 M⁻¹ s⁻¹

B1: 05A09 (VHH)
VHH: EVQLVESGGGLVQAGGSLRLSCAASGFTFDDYAIGWFRQAPGKEREGVSCISSSDGSTVYADSVKGRFTISSDNAKNTVYLQMNSLKPEDTAVYYCAAERRRGYSDLCRFYYGMDYWGKGTQVTVSS
- IC50, HRG1-β1 induced pHER3, MCF-7 [3]: 9.12e-08 M
- IC50, HRG1-β1 induced pHER3, MDA-MB468 [3]: 1.28e-07 M
- IC50, HRG1-β1 induced pAkt, MCF-7 [4]: 2.9e-07 M
- inhibition of HRG1-β1 induced pERK1/2, MCF-7 [4]: < 50 % inhibition
- EC50 [5]: 1.45 nM
- EC50 [6]: 1.3 nM
- % competition [7]: 0%
- % competition [8]: 0%
- % competition [9]: 48%
- % competition [10]: 78%
- % competition [11]: 22%
- % competition [12]: 10%

B2: HER3MS00077 (VHH)
VHH: EVQLVESGGGLVQPGGSLRLSCAASGSIGGLNAMAWYRQAPGKERELVAGIFGVGSTRYADSVKGRFTISRDNSKNTVFLQMNSLRSEDTAVYYCRMSSVTRGSSDYWGQGTLVTVSS
notes: 17B05 basic + I73N; also called HER3MS0077
- IC50 [13]: 0.753 nM

B3: HER3MS00082 (VHH)
VHH: EVQLVESGGGLVQPGGSLRLSCAASGSIGGLNAMAWYRQAPGKERELVAGIFGVGSTRYADSVKGRFTISRDISKNTVYLQMNSLRSEDTAVYYCAMSSVTRGSSDYWGQGTLVTVSS
notes: also called HER3MS0082
- IC50 [13]: 4.05 nM

B4: HER3MS00079 (VHH)
VHH: EVQLVESGGGLVQPGGSLRLSCAASGSIGGLNAMAWYRQAPGKERELVAGIFGVGSTRYADSVKGRFTISRDISKNTVFLQMNSLRSEDTAVYYCAMSSVTRGSSDYWGQGTLVTVSS
notes: also called HER3MS0079
- IC50 [13]: 3.08 nM

B5: HER3MS00081 (VHH)
VHH: EVQLVESGGGLVQPGGSLRLSCAASGSIGGLNAMAWYRQAPGKERELVAGIFGVGSTRYADSVKGRFTISRDNSKNTVFLQMNSLRSEDTAVYYCAMSSVTRGSSDYWGQGTLVTVSS
notes: also called HER3MS0081
- IC50 [13]: 5.89 nM

B6: HER3MS00078 (VHH)
VHH: EVQLVESGGGLVQPGGSLRLSCAASGSIGGLNAMAWYRQAPGKERELVAGIFGVGSTRYADSVKGRFTISRDISKNTVYLQMNSLRSEDTAVYYCRMSSVTRGSSDYWGQGTLVTVSS
notes: 17B05 basic + F79Y; also called HER3MS0078
- IC50 [13]: 0.811 nM

B7: HER3MS00068 (VHH)
VHH: EVQLVESGGGLVQPGGSLRLSCAASGTLFKINAMGWYRQAPGKRRELVALITSSDTTDYAESVEGRFTISRDNTWNAVYLQMNSLKPEDTAVYYCHSDHYSGGVPEKRVIMYGQGTLVTVSS
notes: 18G11 M99G
- IC50 pHER3 blocking, HRG stimulated MCF7 [14]: 8.88e-08 M
- koff [15]: 0.001 s⁻¹
- % inhibition [16]: 84.4%

B8: HER3MS00072 (VHH)
VHH: EVQLVESGGGLVQPGGSLRLSCAASGTLFKINAMGWYRQAPGKRRELVALITSSDTTDYAESVEGRFTISRDNTWNAVYLQMNSLKPEDTAVYYCHSDHYSMGVPEKRVILYGQGTLVTVSS
notes: 18G11 M102L
- IC50 pHER3 blocking, HRG stimulated MCF7 [14]: 5.76e-08 M
- koff [15]: 0.00082 s⁻¹
- % inhibition [16]: 88%

B9: HER3MS00073 (VHH)
VHH: EVQLVESGGGLVQPGGSLRLSCAASGTLFKINAMGWYRQAPGKRRELVALITSSDTTDYAESVEGRFTISRDNTWNAVYLQMNSLKPEDTAVYYCHSDHYSMGVPEKRVIDYGQGTLVTVSS
notes: 18G11 M102D
- IC50 pHER3 blocking, HRG stimulated MCF7 [14]: 8.75e-08 M
- koff [15]: 0.00083 s⁻¹
- % inhibition [16]: 84.4%

B10: HER3MS00070 (VHH)
VHH: EVQLVESGGGLVQPGGSLRLSCAASGTLFKINAMGWYRQAPGKRRELVALITSSDTTDYAESVEGRFTISRDNTWNAVYLQMNSLKPEDTAVYYCHSDHYSIGVPEKRVIMYGQGTLVTVSS
notes: 18G11 M99I
- IC50 pHER3 blocking, HRG stimulated MCF7 [14]: 3.78e-08 M
- koff [15]: 0.00064 s⁻¹
- % inhibition [16]: 82.2%

B11: HER3MS00074 (VHH)
VHH: EVQLVESGGGLVQPGGSLRLSCAASGTLFKINAMGWYRQAPGKRRELVALITSSDTTDYAESVEGRFTISRDNTWNAVYLQMNSLKPEDTAVYYCHSDHYSMGVPEKRVIEYGQGTLVTVSS
notes: 18G11 M102E
- IC50 pHER3 blocking, HRG stimulated MCF7 [14]: 6.3e-08 M
- koff [15]: 0.00049 s⁻¹
- % inhibition [16]: 82.7%

B12: HER3MS00071 (VHH)
VHH: EVQLVESGGGLVQPGGSLRLSCAASGTLFKINAMGWYRQAPGKRRELVALITSSDTTDYAESVEGRFTISRDNTWNAVYLQMNSLKPEDTAVYYCHSDHYSVGVPEKRVIMYGQGTLVTVSS
notes: 18G11 M99V
- IC50 pHER3 blocking, HRG stimulated MCF7 [14]: 7.35e-08 M
- koff [15]: 0.00084 s⁻¹
- % inhibition [16]: 80.9%

B13: HER3MS00069 (VHH)
VHH: EVQLVESGGGLVQPGGSLRLSCAASGTLFKINAMGWYRQAPGKRRELVALITSSDTTDYAESVEGRFTISRDNTWNAVYLQMNSLKPEDTAVYYCHSDHYSLGVPEKRVIMYGQGTLVTVSS
notes: 18G11 M99L
- IC50 pHER3 blocking, HRG stimulated MCF7 [14]: 5.27e-08 M
- koff [15]: 0.00081 s⁻¹
- % inhibition [16]: 83%

B14: HER3MS00129 (VHH)
VHH: EVQLVESGGGLVQPGGSLRLSCAASGFTFSSYPMSWVRQAPGKGPEWVSTVSPGGITTSYADSVKGRFTISRDNSKNTLYLQMNSLRPEDTAVYYCLRDLGNRGQGTLVTVSS
notes: 04C07 basic + A46E + N101G
- IC50 pHER3, HRG1-β1 stimulated MCF7 [17]: 1.21e-07 M
- IC50 [18]: 5.1 nM

B15: 34A04 (VHH)
VHH: EVQLVESGGGLVQAGGSLRLSCAASGFTFDDYTIGWFRQAPGKEREEISCISNNDGSTYYTNSVKGRFTISSDNAKNTVYLQMNSLKPEDTAVYYCAASPHGCWYDLIPLQADFGSWGQGTQVTVSS
- IC50, HRG1-β1 induced pHER3, MCF-7 [3]: 3.02e-08 M
- IC50, HRG1-β1 induced pHER3, MDA-MB468 [3]: 2.2e-08 M
- IC50, HRG1-β1 induced pAkt, MCF-7 [4]: 6.26e-08 M
- IC50, HRG1-β1 induced pERK1/2, MCF-7 [4]: 3.13e-07 M
- EC50 [5]: 0.57 nM
- EC50 [6]: 0.49 nM
- Kd [2]: 2.7 nM
- kon [2]: 2.63e+06 M⁻¹ s⁻¹
- % competition [7]: 22%
- % competition [8]: 3%
- % competition [9]: 14%
- % competition [10]: 25%
- % competition [11]: 99%
- % competition [12]: 97%
